# Assay results published in IntAct's records for PubMed 24510189.
# B1: mRNA-decapping enzyme 1A (Homo sapiens), Q9NPI6 (parent)
# chain: MEALSRAGQEMSLAALKQHDPYITSIADLTGQVALYTFCPKANQWEKTDIEGTLFVYRRSASPYHGFTIVNRLNMHNLVEPVNKDLEFQLHEPFLLYRNASLSIYSIWFYDKNDCHRIAKLMADVVEEETRRSQQAARDKQSPSQANGCSDHRPIDILEMLSRAKDEYERNQMGDSNISSPGLQPSTQLSNLGSTETLEEMPSGSQDKSAPSGHKHLTVEELFGTSLPKEQPAVVGLDSEEMERLPGDASQKEPNSFLPFPFEQLGGAPQSETLGVPSAAHHSVQPEITTPVLITPASITQSNEKHAPTYTIPLSPVLSPTLPAEAPTAQVPPSLPRNSTMMQAVKTTPRQRSPLLNQPVPELSHASLIANQSPFRAPLNVTNTAGTSLPSVDLLQKLRLTPQHDQIQTQPLGKGAMVASFSPAAGQLATPESFIEPPSKTAAARVAASASLSNMVLAPLQSMQQNQDPEVFVQPKVLSSAIPVAGAPLVTATTTAVSSVLLAPSVFQQTVTRSSDLERKASSPSPLTIGTPESQRKPSIILSKSQLQDTLIHLIKNDSSFLSTLHEVYLQVLTKNKDNHNL
# partner: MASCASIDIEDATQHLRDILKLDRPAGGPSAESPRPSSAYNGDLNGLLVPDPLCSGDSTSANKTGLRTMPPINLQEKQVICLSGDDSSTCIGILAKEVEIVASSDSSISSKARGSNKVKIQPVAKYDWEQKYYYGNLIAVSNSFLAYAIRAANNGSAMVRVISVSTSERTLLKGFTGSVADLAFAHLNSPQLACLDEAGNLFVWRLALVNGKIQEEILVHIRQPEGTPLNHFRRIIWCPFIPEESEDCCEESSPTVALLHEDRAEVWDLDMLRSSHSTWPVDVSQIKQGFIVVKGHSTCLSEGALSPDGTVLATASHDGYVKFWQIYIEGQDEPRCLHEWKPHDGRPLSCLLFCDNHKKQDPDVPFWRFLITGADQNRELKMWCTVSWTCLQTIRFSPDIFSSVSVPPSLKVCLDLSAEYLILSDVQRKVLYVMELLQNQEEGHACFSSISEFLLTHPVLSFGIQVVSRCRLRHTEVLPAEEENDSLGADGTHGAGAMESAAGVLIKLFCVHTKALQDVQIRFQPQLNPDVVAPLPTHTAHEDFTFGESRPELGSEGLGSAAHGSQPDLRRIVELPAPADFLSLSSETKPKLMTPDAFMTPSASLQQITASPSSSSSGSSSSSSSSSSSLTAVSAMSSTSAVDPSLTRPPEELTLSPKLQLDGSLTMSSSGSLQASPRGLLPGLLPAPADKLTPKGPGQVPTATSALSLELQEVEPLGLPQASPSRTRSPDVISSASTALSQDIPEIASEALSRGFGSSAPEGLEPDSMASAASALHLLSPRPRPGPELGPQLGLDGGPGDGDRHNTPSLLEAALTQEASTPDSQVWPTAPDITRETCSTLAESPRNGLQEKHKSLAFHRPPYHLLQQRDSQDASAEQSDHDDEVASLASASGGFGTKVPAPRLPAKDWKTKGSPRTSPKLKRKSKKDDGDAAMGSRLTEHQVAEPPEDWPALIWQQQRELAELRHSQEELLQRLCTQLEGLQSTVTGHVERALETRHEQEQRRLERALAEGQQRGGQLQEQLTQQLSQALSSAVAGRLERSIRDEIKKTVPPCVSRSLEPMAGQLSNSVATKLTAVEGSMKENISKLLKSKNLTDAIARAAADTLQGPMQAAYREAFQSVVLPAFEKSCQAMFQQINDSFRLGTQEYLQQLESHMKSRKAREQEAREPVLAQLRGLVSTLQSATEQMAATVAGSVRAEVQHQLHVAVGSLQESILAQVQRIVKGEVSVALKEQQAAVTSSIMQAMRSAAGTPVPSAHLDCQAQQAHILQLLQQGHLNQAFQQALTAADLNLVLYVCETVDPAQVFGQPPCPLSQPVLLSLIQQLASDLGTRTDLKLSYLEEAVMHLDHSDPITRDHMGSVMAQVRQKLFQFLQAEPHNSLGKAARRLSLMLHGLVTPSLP
# Variants of: B1
# Conditions: with edc4_human EDC4, Q6P2E9
row,effect of a mutation on the interaction,Variant
1,with no effect,MEALSRAGQEMSLAALKQHDPYITSIADLTGQVALYTFCPKANQWEKTDIEGTLFVYRRSASPYHGFTIVNGSSGHNLVEPVNKDLEFQLHEPFLLYRNASLSIYSIWFYDKNDCHRIAKLMADVVEEETRRSQQAARDKQSPSQANGCSDHRPIDILEMLSRAKDEYERNQMGDSNISSPGLQPSTQLSNLGSTETLEEMPSGSQDKSAPSGHKHLTVEELFGTSLPKEQPAVVGLDSEEMERLPGDASQKEPNSFLPFPFEQLGGAPQSETLGVPSAAHHSVQPEITTPVLITPASITQSNEKHAPTYTIPLSPVLSPTLPAEAPTAQVPPSLPRNSTMMQAVKTTPRQRSPLLNQPVPELSHASLIANQSPFRAPLNVTNTAGTSLPSVDLLQKLRLTPQHDQIQTQPLGKGAMVASFSPAAGQLATPESFIEPPSKTAAARVAASASLSNMVLAPLQSMQQNQDPEVFVQPKVLSSAIPVAGAPLVTATTTAVSSVLLAPSVFQQTVTRSSDLERKASSPSPLTIGTPESQRKPSIILSKSQLQDTLIHLIKNDSSFLSTLHEVYLQVLTKNKDNHNL [R72G;L73S;N74S;M75G]
2,with no effect,MEALSRAGQEMALAALKAADPYITSIADLTGQVALYTFCPKANQWEKTDIEGTLFVYRRSASPYHGFTIVNRLNMHNLVEPVNKDLEFQLHEPFLLYRNASLSIYSIWFYDKNDCHRIAKLMADVVEEETRRSQQAARDKQSPSQANGCSDHRPIDILEMLSRAKDEYERNQMGDSNISSPGLQPSTQLSNLGSTETLEEMPSGSQDKSAPSGHKHLTVEELFGTSLPKEQPAVVGLDSEEMERLPGDASQKEPNSFLPFPFEQLGGAPQSETLGVPSAAHHSVQPEITTPVLITPASITQSNEKHAPTYTIPLSPVLSPTLPAEAPTAQVPPSLPRNSTMMQAVKTTPRQRSPLLNQPVPELSHASLIANQSPFRAPLNVTNTAGTSLPSVDLLQKLRLTPQHDQIQTQPLGKGAMVASFSPAAGQLATPESFIEPPSKTAAARVAASASLSNMVLAPLQSMQQNQDPEVFVQPKVLSSAIPVAGAPLVTATTTAVSSVLLAPSVFQQTVTRSSDLERKASSPSPLTIGTPESQRKPSIILSKSQLQDTLIHLIKNDSSFLSTLHEVYLQVLTKNKDNHNL [S12A;Q18A;H19A]
3,with no effect,MEALSRAGQEMALAALKQADPYITSIADLTGQVALYTFCPKANQWEKTDIEGTLFVYRRSASPYHGFTIVNRLNMHNLVEPVNKDLEFQLHEPFLLYRNASLSIYSIWFYDKNDCHRIAKLMADVVEEETRRSQQAARDKQSPSQANGCSDHRPIDILEMLSRAKDEYERNQMGDSNISSPGLQPSTQLSNLGSTETLEEMPSGSQDKSAPSGHKHLTVEELFGTSLPKEQPAVVGLDSEEMERLPGDASQKEPNSFLPFPFEQLGGAPQSETLGVPSAAHHSVQPEITTPVLITPASITQSNEKHAPTYTIPLSPVLSPTLPAEAPTAQVPPSLPRNSTMMQAVKTTPRQRSPLLNQPVPELSHASLIANQSPFRAPLNVTNTAGTSLPSVDLLQKLRLTPQHDQIQTQPLGKGAMVASFSPAAGQLATPESFIEPPSKTAAARVAASASLSNMVLAPLQSMQQNQDPEVFVQPKVLSSAIPVAGAPLVTATTTAVSSVLLAPSVFQQTVTRSSDLERKASSPSPLTIGTPESQRKPSIILSKSQLQDTLIHLIKNDSSFLSTLHEVYLQVLTKNKDNHNL [S12A;H19A]
4,with no effect,MEALSRAGQEMSLAALKAADPYITSIADLTGQVALYTFCPKANQWEKTDIEGTLFVYRRSASPYHGFTIVNRLNMHNLVEPVNKDLEFQLHEPFLLYRNASLSIYSIWFYDKNDCHRIAKLMADVVEEETRRSQQAARDKQSPSQANGCSDHRPIDILEMLSRAKDEYERNQMGDSNISSPGLQPSTQLSNLGSTETLEEMPSGSQDKSAPSGHKHLTVEELFGTSLPKEQPAVVGLDSEEMERLPGDASQKEPNSFLPFPFEQLGGAPQSETLGVPSAAHHSVQPEITTPVLITPASITQSNEKHAPTYTIPLSPVLSPTLPAEAPTAQVPPSLPRNSTMMQAVKTTPRQRSPLLNQPVPELSHASLIANQSPFRAPLNVTNTAGTSLPSVDLLQKLRLTPQHDQIQTQPLGKGAMVASFSPAAGQLATPESFIEPPSKTAAARVAASASLSNMVLAPLQSMQQNQDPEVFVQPKVLSSAIPVAGAPLVTATTTAVSSVLLAPSVFQQTVTRSSDLERKASSPSPLTIGTPESQRKPSIILSKSQLQDTLIHLIKNDSSFLSTLHEVYLQVLTKNKDNHNL [Q18A;H19A]
5,with no effect,MEALSRAGQEMSLAALKQHDPYITSIADLTGQVALYTFCPKANQWEKTDIEGTLFVYRRSASPYHGFTIVNRLGMHNLVEPVNKDLEFQLHEPFLLYRNASLSIYSIWFYDKNDCHRIAKLMADVVEEETRRSQQAARDKQSPSQANGCSDHRPIDILEMLSRAKDEYERNQMGDSNISSPGLQPSTQLSNLGSTETLEEMPSGSQDKSAPSGHKHLTVEELFGTSLPKEQPAVVGLDSEEMERLPGDASQKEPNSFLPFPFEQLGGAPQSETLGVPSAAHHSVQPEITTPVLITPASITQSNEKHAPTYTIPLSPVLSPTLPAEAPTAQVPPSLPRNSTMMQAVKTTPRQRSPLLNQPVPELSHASLIANQSPFRAPLNVTNTAGTSLPSVDLLQKLRLTPQHDQIQTQPLGKGAMVASFSPAAGQLATPESFIEPPSKTAAARVAASASLSNMVLAPLQSMQQNQDPEVFVQPKVLSSAIPVAGAPLVTATTTAVSSVLLAPSVFQQTVTRSSDLERKASSPSPLTIGTPESQRKPSIILSKSQLQDTLIHLIKNDSSFLSTLHEVYLQVLTKNKDNHNL [N74G]
